This assay deals with Ab126 antibody. In words: direct competition ELISA: 0.1 µg recombinant PCNA on plate, peptide UMPB6 (0.024-2400 ng/well) mixed with Ab126, anti-rabbit IgG-AP, OD 405 nm.

LGIPEQEY [antigenic peptide UMPB6 (equivalent to PCNA amino acids 126-133)]: the concentration for half-maximal inhibition (IC50) worked out at 0.1 µg/mL.

The IC50 is the concentration needed to halve the response being measured.

Values taken from patent US20080206140A1.
